Results reported in US20160251435A1 (INHIBRX, published 2016).
Where a chain is given by its changes, count along the chain named. Where two headings read alike, the source gives them in different places.

Experiments:
[1] = biological target: T1, human CD47, endogenous cell surface form (Raji, CCRF-CEM cells) (human, UniProt Q08722 19-323); test: apparent KD, flow cytometry on Raji cells, non-linear fit of median fluorescence
T1 construct: the cells carry endogenous CD47; also called cell surface CD47
Experimental: (§1) Humanized antibodies were tested for their ability to bind Raji cells by flow cytometry (FIG. 7). […] Apparent affinities were determined by non-linear fits (Prism Graphpad Software) of the median fluorescence intensities at various antibody concentrations.

[2] = biological target: T1, human CD47, endogenous cell surface …; test: flow cytometry on Raji cells, MFI (FL4)
Experimental: as §1

[3] = biological target: T1, human CD47, endogenous cell surface …; test: flow cytometry on Raji cells, MFI (FL4); remark: listed apart in the source
Experimental: as §1

[4] = biological target: T1, human CD47, endogenous cell surface …; test: flow cytometry on Raji cells, MFI (FL4); remark: listed apart in the source
Experimental: as §1

[5] = biological target: T1, human CD47, endogenous cell surface …; test: flow cytometry on Raji cells, MFI (FL4); remark: listed apart in the source
Experimental: as §1

[6] = biological target: T1, human CD47, endogenous cell surface …; test: apparent KD, flow cytometry on Raji cells, non-linear fit of median fluorescence; remark: listed apart in the source
[7] = biological target: T1, human CD47, endogenous cell surface …; test: flow cytometry on Raji cells, MFI (FL4); remark: listed apart in the source
Experimental: as §1

[8] = biological target: T1, human CD47, endogenous cell surface …; test: flow cytometry on Raji cells, MFI (FL4); remark: listed apart in the source
Experimental: as §1

[9] = biological target: T1, human CD47, endogenous cell surface …; test: flow cytometry on Raji cells, MFI (FL4); remark: listed apart in the source
Experimental: as §1

[10] = biological target: T1, human CD47, endogenous cell surface …; test: apparent KD, flow cytometry on cell surface CD47, non-linear fit of median fluorescence
Experimental: Apparent affinities were determined by non-linear fits (Prism Graphpad Software) of the median fluorescence intensities at various antibody concentrations.

[11] = biological target: T1, human CD47, endogenous cell surface …; test: flow cytometry blocking: SIRPa-Fc binding to CCRF-CEM cells with rising antibody (method of Example 3)
[12] = biological target: T1, human CD47, endogenous cell surface …; test: flow cytometry on CCRF-CEM cells, FITC anti-mouse IgG, MFI-FL1
Text: Bound CD47 antibodies were detected using a FITC conjugated anti-mouse IgG secondary antibody (Jackson ImmunoResearch).

B1: chimeric 2A1 antibody (2A1-xi) (antibody, V domains shown)
VH: EVQLQQSGAELVRSGASVKLSCTASGFNIKDYYLHWVKQRPEQGLEWIGWIDPDNGDTEFAPKFQGKATMTADTSSNTAYLQLSSLTSEDTAVYYCNAAYGSSSYPMDYWGQGTSVTV
VL: DIKMTQSPSSLYASLGERVTITCKASQDIHRYLSWFQQKPGKSPKILIYRANRLVDGVPSRFSGSGSGQDYSLTISSLEYEDMGIYYCLQYDEFPYTFGGGTKLEIK
[1]
  Kd: 0.0364 nM
[2]
  EC50 (read off the curve): ~0.2 nM
[3]
  EC50 (read off the curve): ~0.1 nM
[4]
  EC50 (read off the curve): ~0.05 nM
[5]
  EC50 (read off the curve): ~0.05 nM
[6]
  Kd: 0.078 nM
[7]
  EC50 (read off the curve): ~0.1 nM

B2: humanized antibody AB2.05 (human IgG1) (antibody, V domains shown)
VH: QMQLVQSGAEVKKTGSSVKVSCKASGFNIKDYYLHWVRQAPGQALEWMGWIDPDNGDTEYAQKFQDRVTITRDRSMSTAYMELSSLRSEDTAMYYCNAAYGSSSYPMDYWGQGTTVTV
VL: NIQMTQSPSAMSASVGDRVTITCKASQDIHRYLSWFQQKPGKVPKHLIYRANRLVDGVPSRFSGSGSGTEFTLTISSLQPEDFATYYCLQYDEFPYTFGGGTKVEIK
[2]
  EC50 (read off the curve): ~0.3 nM
[8]
  EC50 (read off the curve): ~0.2 nM
[9]
  EC50 (read off the curve): ~0.2 nM
[4]
  EC50 (read off the curve): ~0.1 nM
[7]
  EC50 (read off the curve): ~0.1 nM

B3: AB12.05 (antibody, V domains shown)
VH: B2 VH with F27Y, N28T, I29F, K30T, D31Y
VL: B2 VL
[7]
  EC50 (read off the curve): ~0.1 nM

B4: AB02.03 (antibody, V domains shown)
VH: B2 VH
VL: B2 VL with N1D, A10S, M11L, F36Y, V43A, H46L, E70D, L73F, F83I
notes: humanized variant of 2A1; also called AB2.03
[8]
  EC50 (read off the curve): ~0.5 nM

B5: AB6.14 (antibody, V domains shown)
VH: B2 VH with N55Q
VL: B2 VL with K24R, S26R, D28G, D56S
[3]
  binding result: binds

B6: AB24.05 (antibody, V domains shown)
VH: B2 VH with Q1E, M2V, T14P, S16A, S17T, V20I, A24V
VL: B2 VL
[8]
  EC50 (read off the curve): ~0.2 nM

B7: AB10.13 (antibody, V domains shown)
VH: B2 VH with G56T
VL: B2 VL with K24R, S26R, D28G, H46I
[3]
  binding result: binds

B8: AB16.05 (antibody, V domains shown)
VH: B2 VH with F27Y, N28T, I29F, D31Y
VL: B2 VL
[5]
  binding result: binds

B9: AB22.05 (antibody, V domains shown)
VH: B2 VH with M81L, E82Q
VL: B2 VL
[7]
  EC50 (read off the curve): ~0.1 nM

B10: AB15.05 (antibody, V domains shown)
VH: B2 VH with F27Y, N28T, K30T, D31Y
VL: B2 VL
[5]
  binding result: binds

B11: AB6.17 (antibody, V domains shown)
VH: B2 VH with N55Q
VL: B2 VL with K24R, S26R, D28G, H46L, D56S
[4]
  EC50 (read off the curve): ~0.2 nM

B12: humanized antibody AB6.12-IgG4PE (antibody, V domains shown)
VH: B2 VH with N55Q
VL: B2 VL with D56S
notes: Igkappa light chain; also called AB6.12-hIgG4PE
[10]
  Kd: 0.0346 nM
[11]
  IC50 (read off the curve): ~0.3 nM

B13: AB10.14 (antibody, V domains shown)
VH: B2 VH with G56T
VL: B2 VL with K24R, S26R, D28G, D56S
[3]
  EC50 (read off the curve): ~0.3 nM

B14: AB02.06 (antibody, V domains shown)
VH: B2 VH
VL: B2 VL with N1D, A10S, M11L, F36Y, V43A, H46R
notes: humanized variant of 2A1; also called AB2.06
[8]
  binding result: binds

B15: AB2.09 (antibody, V domains shown)
VH: B2 VH
VL: B2 VL with N1D
[9]
  EC50 (read off the curve): ~0.2 nM

B16: AB11.05 (antibody, V domains shown)
VH: B2 VH with S104P
VL: B2 VL
[9]
  EC50 (read off the curve): ~0.2 nM

B17: humanized antibody AB6.12-IgG4P (antibody, V domains shown)
VH: B2 VH with N55Q
VL: B2 VL with D56S
notes: Igkappa light chain; also called AB6.12-hIgG4P
[10]
  Kd: 0.0357 nM
[11]
  IC50 (read off the curve): ~0.4 nM

B18: AB2.13 (antibody, V domains shown)
VH: B2 VH
VL: B2 VL with K24R, S26R, D28G, H46I
[4]
  EC50 (read off the curve): ~0.05 nM

B19: AB02.07 (antibody, V domains shown)
VH: B2 VH
VL: DIQMTQSPSSLSASVGDRVTITCRASQDIHRYLAWYQQKPGKVPKLLIYRANRLQSGVPSRFSGSGSGTDFTLTISSLQPEDVATYYCLQYDEFPYTFGQGTKVEIK
notes: humanized variant of 2A1; also called AB2.07
[8]
  EC50 (read off the curve): ~0.5 nM

B20: humanized antibody AB6.12 (human IgG1) (antibody, V domains shown)
VH: B2 VH with N55Q
VL: B2 VL with D56S
notes: also called AB6.12-IgG1; AB6.12-hIgG1
[1]
  Kd: 0.0399 nM
[10]
  Kd: 0.0386 nM
[11]
  IC50 (read off the curve): ~0.3 nM

B21: AB17.05 (antibody, V domains shown)
VH: B2 VH with F27Y, N28T, I29F, K30T
VL: B2 VL
[9]
  EC50 (read off the curve): ~0.2 nM

B22: AB02.04 (antibody, V domains shown)
VH: B2 VH
VL: B2 VL with N1D, A10S, M11L, V43A, H46S, E70D
notes: humanized variant of 2A1; also called AB2.04
[8]
  EC50 (read off the curve): ~0.2 nM

B23: AB03.09 (antibody, V domains shown)
VH: B2 VH with Q1E, M2V
VL: B2 VL with N1D
notes: humanized variant of 2A1; also called AB3.09
[9]
  EC50 (read off the curve): ~0.1 nM

B24: AB6.13 (antibody, V domains shown)
VH: B2 VH with N55Q
VL: B2 VL with K24R, S26R, D28G, H46I
[3]
  EC50 (read off the curve): ~0.07 nM
[4]
  EC50 (read off the curve): ~0.03 nM

B25: AB25.05 (antibody, V domains shown)
VH: B2 VH with Q1E, M2V, T14P, S16A, S17T, V20I, A24V, R38Q, Q43K, A44G
VL: B2 VL
[8]
  EC50 (read off the curve): ~0.3 nM

B26: AB23.05 (antibody, V domains shown)
VH: B2 VH with R87T, M93V
VL: B2 VL
[7]
  EC50 (read off the curve): ~0.1 nM

B27: murine 9E4 antibody (antibody, mouse IgG1, V domains shown)
VH: EVQLRQSGPELVKPGASVKISCKASGYSFTDYYMYWVKQSRVRSLAWIGRINPYTGATGYDQNFKDKASLIVDKSSSTAYMELRSLTSEDSAVYYCARGRNRYDGWFAYWGQGTLVTV
VL: EIQMTQTTSSLSASLGDRVTISCRASQDISNYLNWYQQKPDGTVKLLIYYTSRLHSGVPSRFSGSGSGTDYSLTISNLDQEDIATYFCQQGNALPPTFGGGTNLEIK
[12]
  EC50 (read off the curve): ~0.09 nM
